{"source": "paper PMC2847220", "about": "(Nucleic Acids Research, 2009)", "proteins": {"B1": {"name": "Tpa1Δ20, N-terminal truncated form (residues 21–644) of S. cerevisiae Tpa1 (domain or fragment, UniProt P40032 21-644, looked up)", "chain": "LEEDKIKGMFNPKIWDKTFQDGLKKEIEDSQPYNWGTIHELVNDDLLRAVRKEIETEIHFTKKETDIYRVNQSGDLANLSGLDWDDLSRLPNLFKLRQILYSKQYRDFFGYVTKAGKLSGSKTDMSINTYTKGCHLLTHDDVIGSRRISFILYLPDPDRKWKSHYGGGLRLFPSILPNVPHSDPSAKLVPQFNQIAFFKVLPGFSFHDVEEVKVDKHRLSIQGWYHIPQVGEEGYIPGEEEAWVRNNTSTLAQIESNVLEDFEFPKDERNILSFHEVKHFEKMLKGDAGAKTDNTPKESMTSVISDSVKLSEAEFTYLSQYISPEHLSSKGIEKLQKQFVENSSLQIESFLNDDKSELLKKVIKQKELEQECPYHSKDVKAPWKTAIPPHKARYLYIDGKEYRNFQTEADILEALNNNDLPNFQFTKDAIKIISDASGNSRENNFDAELALIDLAVFHKSTIFKKYLALLTSLCPVSEQILIRRFRPGMDFTLATKCRFNELLKSNPDIIDAVLEGTLCLTPSAGWESGELGGYELYMMDDDEDNKQYLKEDVEDASVYRADDSGDSVLINDPPAWNTFNLVLRDESVLEFVKYVSWSAKSSRWDVKMKWDVKSCDEDGQEDEA"}}, "target": "the molecule itself", "assay": "AUC"}
{"protein": "B1", "values": [{"measurement": "stoichiometry N", "result": 2}]}
